Results: patent US6641997B1, “Assays for screening compounds which interact with cation channel proteins, mutant prokaryotic cation channel proteins, and uses thereof” (The Rockefeller University, priority 1998, dated 2003)

Experiments:
[1] = target: T1, mutant kcsa K+ channel (Q58A, T61S, R64D) (Streptomyces lividans, UniProt P0A334, P2A/Q58A/R64D/T61S); experiment: Mutant kcsa K+ channel cobalt column screen of scorpion venom, eluate analysed by MALDI-TOF mass spectrometry; format: binding; settings: 40 mg Leiurus quinquestriatus hebraeus venom on 1 mL column, imidazole elution
T1 construct: made in house; host or cells: E. coli XL-1 Blue
T1 sequence (P0A334 1-158 P2A/Q58A/T61S/R64D limits assumed): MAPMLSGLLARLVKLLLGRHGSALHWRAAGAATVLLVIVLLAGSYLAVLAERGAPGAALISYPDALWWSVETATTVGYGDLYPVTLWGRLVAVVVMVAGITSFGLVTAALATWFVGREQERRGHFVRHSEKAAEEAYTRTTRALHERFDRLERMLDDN
From the text: FIG. 10. Mass Spectra of scorpion toxins before and after channel column purification MALDI-TOF mass spectra of venom before purification (A) and after elution from a cobalt column in the absence (B) and presence (C) of attached mutant kesa K^+ channel. The accuracy of the mass measurements (±0.3 Da) permitted identification of most of the major peaks in the mass spectra searched from databases of known toxins of the Leiurus quinquestratus hebraeus scorpion (D). The kesa-binding component labeled * could not be assigned to a known scorpion toxin. The component labeled X (4193.0 Da) binds nonspecifically to the column and was not identified. MALDI_MS was performed with the MALDI matrix 4-hydroxy-α-cyano-cinnamic acid (16 of Example II).
Three mutations (Q58A, T61S, R64D) were introduced into the kcsa K^+ channel gene to modify its pore region sequence using PCR mutagenesis and confirmed by DNA sequencing. The gene also contained a mutation at the second residue (P2A) to introduce an ncol restriction endonuclease site and it was lacking the last two carboxyl terminal residues (both Arg) to avoid proteolysis during the protein preparation. This gene was cloned into the pQE60 vector for expression with a carboxyl terminal thrombin and hexahistidine fusion. Channel protein was expressed in XL-1 Blue strain of E. coli (Stratagene) by induction with […] at a concentration of 1.0 mM. Three hours following induction bacteria were sonicated in 50 mM Tris buffer (7.5), 100 mM KCl, 10 mM Mg2SO4, 25 mg DNAse 1, 250 mM sucrose, in addition to pepstatin, leupeptin, and PMSF. The channel was extracted in the same solution containing 40 mM decylmaltoside (Anatrace) at room temperature. […]
Guided by knowledge of the toxin receptor on the Shaker K^+ channel, set forth in SEQ ID NO:4, three point mutations were introduced into the kcsa K^+ channel (SEQ ID NO: 1) that should render it sensitive to scorpion toxins (FIG. 9). […] The eluate was analyzed with MALDI-TOF mass spectrometry, focusing on the low mass range appropriate for scorpion toxins (about 4000 Da). […]

[2] = target: T1, mutant kcsa K+ channel (Q58A, T61S, R64D); experiment: Competition binding assay: unlabeled toxin against labeled Agitoxin2 on mutant kcsa K+ channel resin; settings: for Kd: labeled toxin 0.06 μM, Kdhot 0.62 μM, FIG. 11B, read-out: competing toxin dissociation constant Kdcold; for decrease of affinity caused by the toxin mutation: relative to wild type agitoxin2
From the text: Three mutations (Q58A, T61S, R64D) were introduced into the kcsa K^+ channel gene to modify its pore region sequence using PCR mutagenesis and confirmed by DNA sequencing. The gene also contained a mutation at the second residue (P2A) to introduce an ncol restriction endonuclease site and it was lacking the last two carboxyl terminal residues (both Arg) to avoid proteolysis during the protein preparation. This gene was cloned into the pQE60 vector for expression with a carboxyl terminal thrombin and hexahistidine fusion. Channel protein was expressed in XL-1 Blue strain of E. coli (Stratagene) by induction with […] at a concentration of 1.0 mM. Three hours following induction bacteria were sonicated in 50 mM Tris buffer (7.5), 100 mM KCl, 10 mM Mg2SO4, 25 mg DNAse 1, 250 mM sucrose, in addition to pepstatin, leupeptin, and PMSF. The channel was extracted in the same solution containing 40 mM decylmaltoside (Anatrace) at room temperature. Following centrifugation the supernatant was bound to cobalt resin (Talon) at a protein to resin ratio that will saturate the resin. The resin was washed, and detergent concentration was lowered to 10.0 mM. One mL columns were prepared. The control resin (no channel) was handled in the same manner. The resin preparation was the same for mass spectrometry and binding studies.
(§1) Wild type and mutant agitoxin2 were prepared (10). Tritiated N-ethylmaleimide (NEN Life Sciences) was conjugated to agitoxin2 D20C (14). Binding was performed in a 300 μL volume containing 50 mM Tris (7.5), 100 mM KCl, 10 mM declymaltoside, and 0.3 μL of cobalt resin saturated with the mutant kcsa K^+ channel for 30 minutes at room temperature. Following brief centrifugation the supernatant was removed, resin was applied to a filter, rinsed briefly with ice cold buffer, and then counted in a scintillation counter. All binding measurements were made with a paired control containing a saturating concentration (200 times KD) of unlabeled wild type agitoxin2 to determine nonspecific binding. The competition assay was carried out under the same conditions. Labeled Agitoxin2 at 0.06 μM was always present and unlabeled toxin was added to compete with bound labeled toxin.
as §1, with “17. Wild” for “Wild”, “Kd)” for “KD)”

| Substance | binding to the channel column (mass peak in the eluate) [1] | Kd [2] | decrease of affinity caused by the toxin mutation [2] |
| --- | --- | --- | --- |
| chlorotoxin | did not bind |  |  |
| charybdotoxin | dramatic enhancement of specific peaks |  |  |
| K27A: Agitoxin2 mutant, Lys 27 substituted by alanine |  | 81 µM | 130 fold |
| agitoxin2 | dramatic enhancement of specific peaks | 0.62 µM |  |
| N30A: Agitoxin2 mutant, Asn 30 substituted by alanine |  | 27 µM | 45 fold |
